Experimental data taken from patent publication US7985835B2, “Bioactive peptides and peptide derivatives of parathyroid hormone (PTH) and parathyroid hormone-related peptide (PTHrP)” (The General Hospital Corporation, priority 1998, dated 2011).
“Also recorded” adds a separate entry of the source. Values belong to the substance of their own block, whether it stands above or below them. Ends that are not written are not given here.

Experiments:
human PTH-1 receptor [1] = molecular target: T1, human PTH-1 receptor (Homo sapiens, UniProt Q03431); assay: cAMP in LLC-PK1 cells stably transfected with the human PTH-1 receptor (LLC-B7 cells); type: cell-based; design: expressed in transfected cells
T1 sequence (Q03431 27-593): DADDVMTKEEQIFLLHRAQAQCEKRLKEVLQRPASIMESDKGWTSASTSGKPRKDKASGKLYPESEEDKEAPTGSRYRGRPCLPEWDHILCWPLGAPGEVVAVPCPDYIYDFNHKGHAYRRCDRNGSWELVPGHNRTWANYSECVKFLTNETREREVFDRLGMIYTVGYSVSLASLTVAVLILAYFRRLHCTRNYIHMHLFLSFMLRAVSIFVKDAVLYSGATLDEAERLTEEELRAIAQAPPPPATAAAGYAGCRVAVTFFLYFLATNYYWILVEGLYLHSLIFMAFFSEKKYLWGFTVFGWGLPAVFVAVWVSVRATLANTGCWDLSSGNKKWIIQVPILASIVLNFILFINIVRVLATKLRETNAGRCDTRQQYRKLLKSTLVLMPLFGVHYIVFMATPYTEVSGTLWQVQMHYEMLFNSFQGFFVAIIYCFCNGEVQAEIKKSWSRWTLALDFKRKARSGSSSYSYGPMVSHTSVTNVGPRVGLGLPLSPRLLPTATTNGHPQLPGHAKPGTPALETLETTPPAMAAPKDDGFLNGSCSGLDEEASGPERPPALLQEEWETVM
Experimental: FIG. 3. cAMP dose response curves of short amino-terminal PTH analogs in LLC-PK1 cells stably transfected with the human PTH-1 receptor (LLC-B7 cells). LLC-B7 cells in 24 plates were treated with the indicated peptides for 60 mins at 21° C., and then intracellular cAMP levels were measured. All PTH peptides shown are based on the rat PTH sequence and are carboxy-terminally amidated.
FIG. 7. cAMP activity of [Ile5]PTHrP(1-14). LLC-B7 cells were treated with the indicated peptide ligand, each at 100 μM, and then intracellular cAMP levels were measured.
Intracellular cAMP accumulation was measured as described previously (Abou-Samra et al., J. Biol. Chem. 262:1129, 1986). Cells in 24-well plates were rinsed with culture medium containing 0.1% BSA and 2 mM IBMX. The cells were then incubated with compounds of SEQ ID NO: 1 or derivatives thereof for 60 min. at 21° C. […] Intracellular cAMP was extracted by thawing the cells in 1 ml of 50 mM HCl and analyzed by a specific radioimmunoassay using an anti-cAMP antibody (e.g., Sigma, St. Louis, Mo.). […] The supernatant was removed and the bound radioactivity was counted in a gamma-counter (Micromedic). […]
The analysis extends to the PTHrP(1-14) sequence as well. […] LLC-B7 cells were treated with the indicated peptide ligand, each at 100 μM, and then intracellular cAMP levels were measured.

human PTH-1 receptor [2] = molecular target: T1, human PTH-1 receptor; assay: cAMP accumulation in COS-7 cells expressing the cloned human PTH-1 receptor; type: cell-based; design: expressed in transfected cells; host or cells: COS-7; settings: for stimulation of cAMP formation: COS-7 cells expressing cloned human PTH-1 receptor, peptides at 67 μM, 30 minutes at 21° C.
Experimental: FIG. 1. Bioactivity of amino-terminal and carboxy-terminal fragments of PTH(1-34). Fragments of parathyroid hormone were synthesized by chemical methods and purified by reverse-phase HPLC. Peptides were tested for the ability to stimulate cAMP accumulation in COS-7 cells expressing the cloned human PTH-1 receptor. PTH(1-34) was tested at a dose of 1 μM, other peptides were tested at 67 μM. Peptides were tested in duplicate (±s.e.m.) at a dose of 67 μM. The cAMP in control untreated cells is indicated by Bsl. Cells were treated for 30 minutes at 21° C.
FIG. 2. Alanine-scan of PTH(1-14). Shown are the bioactivities of 14 different PTH(1-14) derivatives, each having a different amino acid of the native sequence (shown at bottom of figure) (SEQ ID NO:14) replaced by alanine. Peptides were chemically synthesized, purified and tested for ability to stimulate cAMP formation in COS-7 cells expressing the cloned human PTH-1 receptor. Peptides were tested in duplicate (±s.e.m.) at a dose of 67 μM. As a control, untreated cells, indicated by basal, were measured. The PTH(1-14) containing alanine at position 1 was used as the wild-type reference. Cells were stimulated for 30 minutes at 21° C.
Intracellular cAMP accumulation was measured as described previously (Abou-Samra et al., J. Biol. Chem. 262:1129, 1986). Cells in 24-well plates were rinsed with culture medium containing 0.1% BSA and 2 mM IBMX. The cells were then incubated with compounds of SEQ ID NO: 1 or derivatives thereof for 60 min. at 21° C. The supernatant was removed and the cells immediately frozen by placing the whole plate in dry ice powder. Intracellular cAMP was extracted by thawing the cells in 1 ml of 50 mM HCl and analyzed by a specific radioimmunoassay using an anti-cAMP antibody (e.g., Sigma, St. Louis, Mo.). A cAMP analog (2′-O-monosuccinyl-adenosine 3′:5′-cyclic monophosphate tyrosyl methyl ester, obtained from Sigma) which was used a tracer for cAMP was iodinated by the chloramine T method. Free iodine was removed by adsorbing the iodinated cAMP analog onto a C18 Sep-pak cartridge (Waters, Milford, Mass.). After washing with dH20, the iodinated cAMP analog was eluted from the Sep-pak Cartridge with 40% acetonitrille (ACN) and 0.1% trifluoroacetic acid (TFA). The iodinated cAMP analog was lyophilized, reconstituted in 1 ml 0.1% TFA, and injected into a C18 reverse phase HPLC column (Waters). The column was equilibrated with 10% ACN in 0.1% TFA, and eluted with gradient of 10-30% ACN in 0.1% TFA. This allows separation of the mono-iodinated cAMP analog from the non-iodinated cAMP analog. The tracer is stable for up to 4 months when stored at −20° C. […] The supernatant was removed and the bound radioactivity was counted in a gamma-counter (Micromedic). […]

[3] = molecular target: T2, rat secretin receptor (rSR) (Rattus norvegicus, UniProt P23811); assay: cAMP in COS-7 cells transfected with rat secretin receptor (specificity); type: cell-based; settings: COS-7 cells transfected with rSR; FIG. 6
T2 construct: expressed in transfected cells; host or cells: COS-7
Experimental: FIG. 6. Specificity of PTH(1-14). […] Thus, the response to PTH(1-14) is dependent on the presence of the PTH-1 receptor.
(§1) PTH(1-14) specificity was also tested using the porcine renal cell line LLC-PK1, either untransfected or stably transfected with the human PTH-1 receptor, the LLC-B7 cell line.

[4] = system: untransfected LLC-PK1 cells; assay: cAMP dose response in LLC-B7 cells versus untransfected LLC-PK1 cells; type: cell-based, porcine; settings: LLC-B7 cells vs untransfected LLC-PK1 cells; FIG. 4
Experimental: FIG. 4. cAMP dose response curves of PTH(1-14) in LLC-B7 cells and in untransfected LLC-PK1 cells. PTH(1-14) and PTH(1-34) control peptides were tested as in FIG. 3.
as §1

PTH = settings: in vitro; cited from earlier work
AC = settings: cited from earlier work
the receptor = settings: cited from earlier work
rat PTH-1 receptor = molecular target: T3, rat PTH-1 receptor (Rattus norvegicus, UniProt P25961); settings: CHO cells expressing cloned rat PTH-1 receptor; cited from earlier work
T3 sequence (P25961 27-591): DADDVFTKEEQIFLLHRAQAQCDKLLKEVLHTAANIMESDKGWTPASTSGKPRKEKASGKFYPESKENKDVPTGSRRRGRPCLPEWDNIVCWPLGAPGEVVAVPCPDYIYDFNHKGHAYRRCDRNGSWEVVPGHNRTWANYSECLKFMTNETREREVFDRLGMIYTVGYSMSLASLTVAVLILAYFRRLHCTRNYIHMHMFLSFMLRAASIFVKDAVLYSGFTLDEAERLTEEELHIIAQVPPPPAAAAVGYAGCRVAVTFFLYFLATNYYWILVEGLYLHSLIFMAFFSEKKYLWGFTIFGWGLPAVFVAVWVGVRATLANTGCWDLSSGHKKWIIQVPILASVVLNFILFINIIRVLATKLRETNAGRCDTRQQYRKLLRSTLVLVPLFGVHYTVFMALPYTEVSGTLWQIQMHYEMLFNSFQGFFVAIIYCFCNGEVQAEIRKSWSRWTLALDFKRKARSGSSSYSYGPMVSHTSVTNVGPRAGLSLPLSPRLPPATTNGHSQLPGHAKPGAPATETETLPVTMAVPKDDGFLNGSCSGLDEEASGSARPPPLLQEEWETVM

rat renal membranes = settings: cited from earlier work

T2 sequence (P23811 26-449): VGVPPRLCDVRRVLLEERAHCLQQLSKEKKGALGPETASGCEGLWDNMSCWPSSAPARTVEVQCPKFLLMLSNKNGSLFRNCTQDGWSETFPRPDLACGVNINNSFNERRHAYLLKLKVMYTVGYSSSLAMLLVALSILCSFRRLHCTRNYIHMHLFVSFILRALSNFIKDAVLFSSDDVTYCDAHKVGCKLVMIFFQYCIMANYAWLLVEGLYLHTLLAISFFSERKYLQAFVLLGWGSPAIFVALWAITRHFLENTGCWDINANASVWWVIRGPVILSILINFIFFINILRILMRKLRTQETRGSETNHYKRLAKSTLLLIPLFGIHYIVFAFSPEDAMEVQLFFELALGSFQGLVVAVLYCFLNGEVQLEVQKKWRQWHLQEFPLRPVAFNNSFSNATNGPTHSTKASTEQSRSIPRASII

Substance: AVSEIQLLHDKGKS [[Ile^5] PTHrP(1-14)]
- cAMP activity, potency relative to native PTHrP(1-14) (human PTH-1 receptor [1]; each peptide at 100 μM, FIG. 7): enhanced potency, relative to native PTHrP(1-14)

Substance: AVSEIQLMH [[Ala^1] PTH(1-9)]
- stimulation of cAMP formation (human PTH-1 receptor [2]; FIG. 1): small cAMP response; also recorded: exhibits some biological activity

- activity relative to native PTH(1-34) (human PTH-1 receptor [2]; FIG. 1, PTH(1-34) at 1 μM, other peptides at 67 μM): weaker than native PTH(1-34)
Substance: AlaValSerGluIleGlnLeuMetHisAsnLeuGlyLysHis (AVSEIQLMHNLGKH-NH2) [[Ala^1] PTH(1-14)]
- bioactivity relative to native PTH(1-14) (human PTH-1 receptor [2]; Ser1 to Ala substitution, compared with native PTH(1-14) peptide): measurable increase in bioactivity over the background level of bioactivity of the native PTH(1-14) peptide

- cAMP dose response activity (human PTH-1 receptor [1]; 60 mins at 21° C., rat PTH sequence, carboxy-terminally amidated, FIG. 3): only very weak activity
Substance: PTH(1-13): PTH variant truncated by one amino acid at the C-terminus, residues 1-13; rat PTH sequence (AVSEIQLMHNLGK)

Substance: PTH(1-14): 1-14 fragment of PTH; peptides in FIG. 3 are based on the rat PTH sequence (alanine at position 1) (SVSEIQLMHNLGKH)
- stimulation of cAMP in cells expressing rat secretin receptor [3]: inactive; also recorded: does not stimulate cAMP
- dependence of cAMP response on PTH-1 receptor [4]: dependent on PTH-1 receptor expression; also recorded: completely dependent on the presence of the PTH-1 receptor

Substance: PTH(3-34): synthetic analog of bovine PTH (SEIQFMHNLGKHLSSMERVEWLRKKLQDVHNF; Parathyroid hormone; UniProt P01268 34-65, looked up, fragment)
- PTH antagonist activity (PTH): potent PTH antagonist in vitro

- stimulation of cAMP formation (human PTH-1 receptor [2]; FIG. 1): inactive
Substance: PTH(15-31): carboxy-terminal fragment of PTH(1-34) (LNSMERVEWLRKKLQDV; Parathyroid hormone; UniProt P01270 46-62, looked up, fragment) [reference compound]

Substance: PTH(15-34): PTH(15-34) fragment
- activation of AC (AC): does not activate AC
- receptor binding (the receptor): binds weakly

Substance: PTHrP(1-16): short NH2-terminal PTHrP peptide investigated previously (AVSEHQLLHDKGKSIQ; Parathyroid hormone-related protein; UniProt P12272 37-52, looked up, fragment)
- AC activity (rat PTH-1 receptor): inactive

Substance: bPTH(1-12): short NH2-terminal PTH peptide investigated previously (AVSEIQFMHNLG; Parathyroid hormone; UniProt P01268 32-43, looked up, fragment)
- adenylyl cyclase activity (rat renal membranes): inactive

Substance: secretin (1-27): control native secretin (1-27) [reference compound]
- stimulation of cAMP in cells expressing rat secretin receptor [3]: responds fully
